According to publication PMC6887548:

Molecular target: MCM helicase hexamer (Mcm2-7) (yeast) (UniProt P29469)
Assay: negative-stain EM

## ORC variant lacking the N-terminal 119 amino acids of Orc6, P54784;P32833;P54790;P54791;P50874;P38826
  decrease of MO formation against wild type ORC: 50%
